Test: yeast display, Sf9 membrane polyspecificity reagent, FACS + sequencing; frameworks hold sequencing errors
Outline: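 Nanobodies came from a synthetic yeast display library in Saccharomyces cerevisiae BJ5465, induced with galactose for 36–48 hours and stained for 1 hour at 4 °C with 10% biotinylated, detergent-solubilized Sf9 membrane reagent. Cells were enriched on streptavidin microbeads and then FACS-sorted, with low and high (top ~1%) gates set on anti-HA fluorescence for expression and streptavidin fluorescence for reagent binding. Each polyreactivity label reflects the gate a clone came from. Genes were amplified by colony PCR, sequenced by MiSeq 2 × 250 and filtered by CDR length.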

Sequence | polyreactivity (PSR sort gate)
QVQLVESGGGLVQAGGSLRLSCAASGRTFNTYAMGWYRQAPGKERELVAAISRTGASTYYADSVKGRFTISRDNAKNTVYLQMNSLKPEDTAVYYCAADANSGDGYYWGQGTQVTVSS | high polyreactivity
QVQLVESGGGLVQAGGSLRLSCAASGRTFLWYAMGWYRQAPGKERELVAAITTAGSTYYADSVKGRFTISRDNAKNTVYLQMNSLKPEDTAVYYCNRLTYAYPPPVLGVGHDSWGQGTQVTVSS | low polyreactivity
QVQLVESGGGLVQAGGSLRLSCAASGSIFYLYTMGWYRQAPGKERELVASITYSGGTYYADSVKGRFTISRDNAKNTVYLQMNSLKPEDTAVYYCNAHIPTNRSYVPEVRGEYDYWGQGTQVTVSS | low polyreactivity
QVQLVESGGGLVQAGGSLRLICAAWSIFYLNAMGWYRQAPGKERELVAAISSAGSTYYADSVKGRFTISRDNAKNSVYLQMNSLKPEDTAVYYCAAYWYDSPGVTEIWYDYWGQGTQVTVSS | low polyreactivity
QVQLVESGGGLVQAGGSLRLSCAASGSIFQINVMGWYRQAPGKERELVAASYADSVKGRFTISRDNAKNTVYLQMNSLKPEDTAVYYCARSNPAYSIYDYWGQGTQVTVSS | low polyreactivity
QVQLVESGGGLVQAGGSLRLSCAASGRIFKNYAMGWYRQAPGKERELVAAITWSGGRTYYADSVKGRFTISRDNAKNTVYLQMNSLKPEDTAVYYCATAARRGPTSIEPFGYGSWGQGTQVTVSS | high polyreactivity
QVQLVESGGGLVQAGGSLRLSCAASGRTFRPYAMGWYRQAPGKERELVAAITTTGRTYYADSVKGRFTISRDNAKNTVYLQMNSLKPEDTAVYDCNAVAYPSPHYWRYYYWGQGTQVTVSS | high polyreactivity
QVQLVESGGGLVQAGGSLRLSCAASGLIFAVYAMGWYRQAPGKERELVAGISASAASTYYADSVKGRFTISRDNAKNTVYLQMNSLKPEDTAVYYCVAVLPARGYYWGQGTQVTVSS | high polyreactivity
QVQLVESGGGLFQTGGSLRLSRAASGRTFRYYVMGWYRQAPWKESELVAAISWSGGRTNYADSVKGRFTISRDNAKNTVYLQMNCLKPEDTSVYYCIAAGPALRRYDYWGQGTQVTVSS | high polyreactivity
QVQLVESGGGLVQAGGSLRLSCAASGRILYYYAMGWYRQAPGKERELVAGITTDDSTNYADSVKGRFTISRDNAKNTVYFQMNSLKPEDTAVYYCAAKYVHGEYDYWGQGTQVTVSS | low polyreactivity
QVQLVESGGGLVQAGGSLRLSCAASGISYRWYAMGWYRQAPGKERELVAAISSGGSTTYADSVKGRFTISRDNAKNTVYLQMNSLKPEDTAVYYCAARYQWYSADYDYWGQGTQVTVSS | high polyreactivity
QVQLVESGGGLVQAGGSLRLSCAASGRTFRYNAMGWSRQAPGKERELVADITKSGGTTYYADSVKGRFTISRDNAKNTVYLQMNSLKPEDTAVYYCNAYRVVHPWEYDYWGQGTQVTVSS | high polyreactivity
QVQLVESGGGLVQAGGSLRLSCAASGSIFNYYTMGWYRQAPGKERELVAAISYRGGRTYYADSVKGRFTISRDNAKNTVYLQMNSLKPEDTAVYYCNAVTRIYEVDYWGQGTQVTVSS | high polyreactivity
QVQLVESGGGLVQAGGSLRLSCAASGFILFPNAMGWYRQAPGKERELVAAITSGGRTNYADSVKGRFTISRDNAKNTVYLQMTSLKPEDTAVYYCAYVGYWWGYDYWGQGTQVTVSS | low polyreactivity
QVQLVESGGGLVQAGGSLRLSCAASGRTFAINTMGWYRPAPGKEREFVASITRRGGSTYYADSVKWRFTISRDNAKNTVYLQMNSLKREDNAVYYCNAELRWRLPARAAYYYWGQGTQVTFSS | high polyreactivity
QVQLVESGGGLVQAGGILRLSCAASGFIFTYYAKGWYRQAPGKEMELVAAISWSGGSTYYADSVKGRFTISRDNAKNTVYLLMNSLKPEDTAVYYCAVDLHYSRGPRDAQYRYYYWGHGTQVTVSS | high polyreactivity
QGQLVESGGGLVQAGGSLRLSCAASGIILSAYALGWYRQAPGNERELVAAITRRGGRTYYADSVKGRFTISRDNAKNTVYLQMNSLKPEDTAVYYCATVQSGRVRTYDYWGQGTQVTVSS | high polyreactivity
QVQLVESGGGLVQAGGSLRLSCAASGIIFNTYAMGWYRQAPGKERELVAAISSSGGRTYYADSVKGRFTISRDHAKNTVYLQMNSLTPEDTAVYNCNKVQNRGPRTNARKFDYWGQGTQVTVSS | high polyreactivity
QVQLLESVGGLVQAGGSLRLSCAASGRIFGSNAMGWYRQAPGKERELVAAITRGGSTNYADSVKGRFTISRDNAKNTVYLQMNSLKPEDTAVYYCAVRWYRKYNYWGQGTQVTVSS | high polyreactivity
QVQLVESGGCLVQAGGSLRLSCAASGLTFRYYAMGWYRQAPGKERELVAAITASVGSTYYADSVKGRFTISRDNAKNTVYLQMNSLKPEDTAVYYCAADSEQDNLRYYRWVWYDYWGQGTQVTVSS | low polyreactivity
QVQLVESGGGLVQAGGSLRLSCAASGSIFVRNGMGWYIQAPGKERELVASITSGTITYYADSVKGRFTISRDNAKNTVYLQMNSLKPEDTAVYYCAARRDRGRVKFYYWGQGTQVTVSS | high polyreactivity
QVQLVESGGGLVQAGGSLRLSCAASGSIFGGNAMGWYRQAPGKERELVAAITSRGGSTYYADSVKGRFTISRDNAKNTVYLQMNSLKPEDTAVYYCNALSSGVYLYDYWGQGTQVTVSS | high polyreactivity

Sequence | polyreactivity (PSR sort gate)
QVQLVESGGGLVQAGGSLRLSCAASGSIFEGYAMGWYRQAPGKERELVAAISRSGGSTYYADSVKGRFPISRDNAKNTVYLQMNSLKPEDTAVYYCAARKAIDYQGRHDHWGQGTQVTVSS | low polyreactivity
QVQLVESGGGLVQAGGSLRISCAASGRTCNHYTMGWYRPAPGKERELVAAITSGGSTYYADSVKGRFTISRDNAKNTVYLQMNSLKPEDTAVYYCARVRPLYHYSRYDYWGQGTQVTVSS | high polyreactivity
QVQLVESGGGLVQAGGSLRLSCAASGRNFTSNSMGLYRQAPGKEREFVAAITTSGASTRYADSVKGRFTISRDNAKNTVYLQMNSLKPEDTAVYYCAAEQRRFTGYDYWGQGTQVTVSS | high polyreactivity
QVQLVESGGGLVQAGGSLRLSCAASGITVKLYPMGWYRQAPGKETELVATINRGSSTYYADSVKGRFTISRDNAKNTVYLLMNSLKPEDTAVYYCAARLIGAGLLIYDYWGQGTQVTVSS | high polyreactivity
QVQLVESGGGLVQAGGSLRLSCAASGFTFYPYTMGWYRQAPGKERELVADITYDSTYYADSVKGRFTISRDNAKNTVYLQMNSLKPEDTAVYYCNATGYSVSRSAYWYGWYDYWGQGTQVTVSS | low polyreactivity
QVQLVESGGGLVQAGGSLRLSCAASGSTFDKNAMGWYRQEPGKERELVAAINNGGGTTYYADSVKGRFTISRDNAKNTVYLQMNSLKPEDTAVYYCAAVGKAYWSDYQYRYYYWGQGTQVTVSS | low polyreactivity
QVQLVESGGGLVQAGGSLRLSCAASGRTFFDYSMGWYRQAPGKERELVAAITGGDGSTYYADSVKGRFTISRDNAKNTVYIQMNSLKTEDTAVYYCAAENTRTYWYAAMDYWGQGTQVTVSS | low polyreactivity
QVQLVESGGGLVQAGGSLRLSCAASGSTFEQYAMGWYRQAPGTERELVASISTGGGRTYYADSVKGRFTISRDNAKYTVYLQMNSLKPEETAVFYCNKRYRGYKTGYSRFDYWVQGTQVTVSS | low polyreactivity
QVQLVESGGGLVQAGGSLRLSCAASGRTLWGNAMGWYRQAPGKERELVAAISRSGYTNYADSVKGRFTISRDNAKNTVYLLMNRLKPEDTAVYYCNARSTRSRTYQSYDYWGQGTQVTVSS | high polyreactivity
QVQLEESPGGLVQAGGSLRLSCAASGRIIGRYAMGWTRQAPGKERELVAAISYRGGSTYYADSVKGRFTISRDNAKNTVYLQMNSLKPEDTAVYYCAKDSRSWPFKYDYWGQGTQVTVSS | high polyreactivity
QVQLVESGGGLVQAGGSLRLSCAASGSTLQINGMGGYRQAPGKERELVAAISIGGDTNYADSVKGRFTISRDNAKNTEMNSLKTEDTAVYYCNTDYFGSLVVVIFDYWGQGTQVTVSS | low polyreactivity
QVQLVESGGALVQAGGSLRLSCAASAITYRYYAMGWNRQAPGKERELVATITRSGGSTYYADSVKGRFTISRDNAKNTVYLQMNSLKPEDTAVYYCAKGLYSTRYYYWGQGTQVTVSS | high polyreactivity
QVQLVESGGGLVQAGGSLSLSCAASGSIFYHNAMGWYRQAPGKERELVAAITGSGGSTYYADSVKGRFTISRDNAKNTVYLQMNSLKPEDTAVYYCAAVQLYQKHQITYVAHEYWGQGTQVTVSS | low polyreactivity
QVQLVESGGGLVQAGGSLRLSCAASGSTFRYNAMGWYRQAPGKERELVAAITSGGTTNYADSVKGRFTISRDNAKNTVYLQMNSLKPEDTAVYYCNAYVAYWGWVYRVDYWGQGTQVTVSS | low polyreactivity
QVQLVESGGGLVQAGGSLRLSCAASGSIVRYSVGWYRQAPGKERELVAAISIGGTTYYADSVKGRFTISRDNAKNTVYLPMNSLKPEDTAVYYCNVRRRTWHYITSMDYWGQGTQVNVSS | high polyreactivity
QVQLVESGGGLVQAGGSLRLSSASSGSTFSLNAMGWYRQAPGTERELVAAISSSTGRTSYADSVKGRFTISRDNAKNTVYLQMTSLNPEDTAVYYCAADVYESLYFPYDSWRQGTQVTVSS | low polyreactivity
QDQLVESGGGLVQAGGSLRLSCAASGGTFIYNTMGWYRQAPGKERELVAAINSGGSTTYADSVKGRFTISRDNAKNTVYLQMNSLKPEDTAVYYCAAVYVYLGVYARYPIWGYYYWGQGTQVTVSS | low polyreactivity
QVQLVESGGGLVQAGGSLRLSCAASGNTFGLYAMGWYRQAPGKDRELVATITWSVSTYADSEKGRFTISRDNAKITVYLEMNSLKPEDTAVYFCAATTGPWYWRYVYWGQGTQVTVSS | high polyreactivity
QVQLVESGGGLVQEGGSLRLSCAASGSTFSFYAMGWYRQAPGKERELVAAIDSGGRTKYADSVKGRFTISRDNAKNTVYLQMNSLKPEDSEVYYCGAVFRGWWLYDYWGKGTQVTVSS | low polyreactivity
QVQHVESGGGLVQAGGSLRLSCAASGRIFYAYTMGWYRQAPGKERELGAAISRSGSTYYADSVKGRFTISRDNAKNPVYLQMNSLKPEDTAVYYCAADVTGGRKYDYWGQGTQVTVSS | low polyreactivity
QVQLVESGGGLVQAGGSLRLSCAASGRIFISNAMGWYRQAPGKERELVAAITWIGDRTYYADSVKGRFTISRDNAKITVYLQMNSLKPEDTAVYYCNRVTSRVSGRYSYDYWGQGTQVTVSS | high polyreactivity
